The target in this data set is insulin (human, UniProt P01308;P01308 25-54;90-110). The data set is described as follows: bead-based flow cytometry.
insulin, sequence (P01308 25-54, chain 1 of 2): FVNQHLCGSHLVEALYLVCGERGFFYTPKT
insulin, sequence (P01308 90-110, chain 2 of 2): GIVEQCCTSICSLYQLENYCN

B1: IGA3 bt (ssDNA)
DNA: GGTGGTGGGGGGGGTTGGTAGGGTGTCTTC
Take B1: the Kd was 12.7 ± 1.1 µM.

Source of the values: paper doi:10.1101/2020.04.25.060004.
